This is an account of results in doi:10.1101/2025.04.15.648992.

Common to all, as to assay: SEC
The target in experiment [1] is CdaA_(88-273) D172A (Leptospira interrogans str. Fiocruz L1-130).
Experiment [2] addresses CdaA_(88-273) R203A (Leptospira interrogans str. Fiocruz L1-130).
Experiment [3] addresses CdaA_(88-273) S222A (Leptospira interrogans str. Fiocruz L1-130).

As to “CdaA_(88-273) D172A (domain or fragment)”, the stoichiometry N (as a rule, the number of molecules, sites or subunits per partner or assembly) in experiment [1] was 2.
Consider “CdaA_(88-273) R203A (domain or fragment)”, for which the stoichiometry N in experiment [2] came to 2.
In experiment [3], “CdaA_(88-273) S222A (domain or fragment)” displayed a stoichiometry N of 2.
